From patent US20090010874A1 (published 2009)

T1: human IL-4 receptor alpha chain on cells (TF-1 cells, primary human T-cell blasts and B cells) (human, UniProt P24394 26-825)
T1 sequence (looked up): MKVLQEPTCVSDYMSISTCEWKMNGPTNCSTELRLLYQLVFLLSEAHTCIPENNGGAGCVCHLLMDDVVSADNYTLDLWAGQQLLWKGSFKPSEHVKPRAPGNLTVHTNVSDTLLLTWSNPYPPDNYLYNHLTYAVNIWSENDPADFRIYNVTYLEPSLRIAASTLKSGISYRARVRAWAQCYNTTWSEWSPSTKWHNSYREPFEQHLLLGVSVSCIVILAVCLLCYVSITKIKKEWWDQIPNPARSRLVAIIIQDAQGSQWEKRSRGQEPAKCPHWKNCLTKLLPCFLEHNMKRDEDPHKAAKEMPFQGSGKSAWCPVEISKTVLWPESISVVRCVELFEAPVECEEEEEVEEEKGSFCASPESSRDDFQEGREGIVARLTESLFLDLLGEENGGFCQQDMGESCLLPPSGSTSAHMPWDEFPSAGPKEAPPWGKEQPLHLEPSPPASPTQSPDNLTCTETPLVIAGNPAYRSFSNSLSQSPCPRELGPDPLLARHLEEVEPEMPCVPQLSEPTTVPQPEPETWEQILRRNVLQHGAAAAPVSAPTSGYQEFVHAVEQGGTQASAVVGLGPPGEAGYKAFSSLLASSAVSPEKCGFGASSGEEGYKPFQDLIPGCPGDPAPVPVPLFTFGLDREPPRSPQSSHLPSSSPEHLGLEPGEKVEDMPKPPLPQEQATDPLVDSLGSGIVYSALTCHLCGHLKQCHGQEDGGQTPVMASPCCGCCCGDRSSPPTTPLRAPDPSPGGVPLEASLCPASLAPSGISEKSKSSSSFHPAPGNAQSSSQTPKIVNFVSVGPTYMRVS

T2: IL-4 receptor (immobilized on BIAcore CM5 chip) (human, UniProt P24394 26-232, limits assumed)
T2 construct: also called IL-4Rα; IL-4 receptor alpha chain
T2 sequence (looked up): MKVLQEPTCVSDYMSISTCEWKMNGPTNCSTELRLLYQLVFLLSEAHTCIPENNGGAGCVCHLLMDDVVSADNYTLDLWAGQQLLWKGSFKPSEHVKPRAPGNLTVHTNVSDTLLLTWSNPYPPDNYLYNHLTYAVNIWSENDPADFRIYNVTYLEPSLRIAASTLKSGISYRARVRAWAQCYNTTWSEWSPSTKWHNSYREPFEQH


What was measured:
[1] = biological target: T1, human IL-4 receptor alpha chain on …; assay: cell-based or functional assay
[2] = biological target: T1, human IL-4 receptor alpha chain on …; assay: cell-based or functional assay; remark: listed apart in the source
[3] = biological target: T1, human IL-4 receptor alpha chain on …; assay: cell-based or functional assay; remark: listed apart in the source
[4] = biological target: T2, IL-4 receptor (immobilized on BIAcore …); assay: BIAcore SPR, IL-4 receptor amine-coupled to CM5 chip, mutein injected, direct binding kinetics
Method: IL-4 receptor was immobilized on a BIAcore CM5 research grade sensor chip through amine coupling. The sensor surface was activated with an EDC/NHS pulse. IL-4 receptor was dissolved in 10 mM acetate buffer (pH 5.0) and injected into flowcell 2 followed by a pulse of 1.0M ethanolamine-HCL to deactivate the surface. The immobilization level for the receptor was ˜300 RU. Flowcell 1 was also activated without a ligand to function as a blank. The Biacore Wizard was used to perform kinetics analysis. Candidate IL4RE antagonists were diluted in HBS-EP (running buffer) and injected at 30 ul/minute flow rate for 3 minutes and a dissociation time of 15 minutes. Regeneration of the chip was performed by two 30 second injections of 10 mM Glycine pH2.5 (flow 100 ul/min) to baseline prior to next injection in the concentration series. Dissociation constant (KD) values were calculated for each candidate based on direct binding kinetics (Table 5).

[5] = biological target: T1, human IL-4 receptor alpha chain on …; assay: cell-based or functional assay; remark: listed apart in the source
[6] = biological target: T1, human IL-4 receptor alpha chain on …; assay: cell-based or functional assay; remark: listed apart in the source

Row | Binder | TF-1/IL-4 IC50 [1] | TF-1/IL-13 IC50 [1] | Fold increase in IC50 (relative to IL-4DM), primary T cell blasts [2] | IC50 (nM), primary T cell blast proliferation to IL-4 [2] | B-cell IC50, nM (proliferation to IL-4) [3] | T-cell blast IC50, nM (proliferation to IL-4) [3] | Kd [4] | Fold increase in IC50 (relative to IL-4DM), primary B cells [5] | IC50 (nM), primary B cell proliferation to anti-CD40 and IL-4 [5] | loss of activity in the TF-1 activity assay against PEGylated 38C [6]
1 | IL-4RA (IL-4 double mutein R121D/Y124D, unPEGylated) (ligand, also called BAY 16-9996; IL-4DM) MHKCDITLQEIIKTLNSLTEQKTLCTELTVTDIFAASKNTTEKETFCRAATVLRQFYSHHEKDTRCLGATAQQFHRHKQLIRFLKRLDRNLWGLAGLNSCPVKEANQSTLENFLERLKTIMDEKDSKCSS | 0.56 nM | 1.17 nM | 1 fold | 1.07 nM | 0.86 nM | 3.22 nM | 0.11 nM | 1 fold | 1.71 nM | –
2 | IL4-RE-Q106C, PEGylated with linear 22 kD mPEG-maleimide (ligand, linear 22 kD methoxy-polyethylene glycol-maleimide on Cys 106 (numbered according to wild type IL-4), also called PEG-IL4RE) MHKCDITLQEIIKTLNSLTEQKTLCTELTVTDIFAASKNTTEKETFCRAATVLRQFYSHHEKDTRCLGATAQQFHRHKQLIRFLKRLDRNLWGLAGLNSCPVKEANCSTLENFLERLKTIMDEKDSKCSS | 2.44 nM | 1.95 nM | – | – | – | – | 0.52 nM | – | – | –
3 | IL-4TM-A104C (R121D/Y124D/A104C) PEGylated with 40 kDa branched maleimide-PEG (ligand, 40 kDa branched maleimide-PEG on Cys 104 (numbered according to wild type IL-4)) MHKCDITLQEIIKTLNSLTEQKTLCTELTVTDIFAASKNTTEKETFCRAATVLRQFYSHHEKDTRCLGATAQQFHRHKQLIRFLKRLDRNLWGLAGLNSCPVKECNQSTLENFLERLKTIMDEKDSKCSS | – | – | 7.4 fold | 8 nM | – | – | – | 11.3 fold | 19.4 nM | ~2 fold
4 | IL4-RE-T28C, PEGylated with linear 22 kD mPEG-maleimide (ligand, linear 22 kD methoxy-polyethylene glycol-maleimide on Cys 28 (numbered according to wild type IL-4), also called PEG-IL4RE) MHKCDITLQEIIKTLNSLTEQKTLCTELCVTDIFAASKNTTEKETFCRAATVLRQFYSHHEKDTRCLGATAQQFHRHKQLIRFLKRLDRNLWGLAGLNSCPVKEANQSTLENFLERLKTIMDEKDSKCSS | 2.35 nM | 2.87 nM | – | – | – | – | 0.89 nM | – | – | –
5 | IL4-RE-A104C, PEGylated with linear 22 kD mPEG-maleimide (ligand, linear 22 kD methoxy-polyethylene glycol-maleimide on Cys 104 (numbered according to wild type IL-4), also called PEG-IL4RE) MHKCDITLQEIIKTLNSLTEQKTLCTELTVTDIFAASKNTTEKETFCRAATVLRQFYSHHEKDTRCLGATAQQFHRHKQLIRFLKRLDRNLWGLAGLNSCPVKECNQSTLENFLERLKTIMDEKDSKCSS | 0.55 nM | 1.34 nM | – | – | 3.29 nM | 4.67 nM | 0.56 nM | – | – | –
6 | IL4-RE-N105C, PEGylated with linear 22 kD mPEG-maleimide (ligand, linear 22 kD methoxy-polyethylene glycol-maleimide on Cys 105 (numbered according to wild type IL-4), also called PEG-IL4RE) MHKCDITLQEIIKTLNSLTEQKTLCTELTVTDIFAASKNTTEKETFCRAATVLRQFYSHHEKDTRCLGATAQQFHRHKQLIRFLKRLDRNLWGLAGLNSCPVKEACQSTLENFLERLKTIMDEKDSKCSS | 2.26 nM | 2.11 nM | – | – | – | – | 0.59 nM | – | – | –
7 | IL4-RE-N38C, PEGylated with linear 22 kD mPEG-maleimide (ligand, linear 22 kD methoxy-polyethylene glycol-maleimide on Cys 38 (numbered according to wild type IL-4), also called PEG-IL4RE) MHKCDITLQEIIKTLNSLTEQKTLCTELTVTDIFAASKCTTEKETFCRAATVLRQFYSHHEKDTRCLGATAQQFHRHKQLIRFLKRLDRNLWGLAGLNSCPVKEANQSTLENFLERLKTIMDEKDSKCSS | 0.7 nM | 1.24 nM | – | – | 3.33 nM | 9.94 nM | 0.77 nM | – | – | –
8 | IL-4TM-N38C (R121D/Y124D/N38C) PEGylated with 40 kDa branched maleimide-PEG (ligand, 40 kDa branched maleimide-PEG on Cys 38 (numbered according to wild type IL-4)) MHKCDITLQEIIKTLNSLTEQKTLCTELTVTDIFAASKCTTEKETFCRAATVLRQFYSHHEKDTRCLGATAQQFHRHKQLIRFLKRLDRNLWGLAGLNSCPVKEANQSTLENFLERLKTIMDEKDSKCSS | – | – | 2.3 fold | 2.43 nM | – | – | – | 4 fold | 6.85 nM | –
9 | PEGylated T13D-N38C with 40 kDa branched PEG (IL4-RE-T13D-N38C) (ligand, 40 kDa branched maleimide-PEG on Cys 38 (numbered according to wild type IL-4)) MHKCDITLQEIIKDLNSLTEQKTLCTELTVTDIFAASKCTTEKETFCRAATVLRQFYSHHEKDTRCLGATAQQFHRHKQLIRFLKRLDRNLWGLAGLNSCPVKEANQSTLENFLERLKTIMDEKDSKCSS | – | – | 3.1 fold | 3.28 nM | – | – | – | 1.4 fold | 2.43 nM | –

Next, values leading:

Row | TF-1/IL-4 IC50 [1] | TF-1/IL-13 IC50 [1] | Fold increase in IC50 (relative to IL-4DM), primary T cell blasts [2] | IC50 (nM), primary T cell blast proliferation to IL-4 [2] | B-cell IC50, nM (proliferation to IL-4) [3] | T-cell blast IC50, nM (proliferation to IL-4) [3] | Kd [4] | Fold increase in IC50 (relative to IL-4DM), primary B cells [5] | IC50 (nM), primary B cell proliferation to anti-CD40 and IL-4 [5] | loss of activity in the TF-1 activity assay against PEGylated 38C [6] | Binder
10 | – | – | 0.67 fold | 0.714 nM | – | – | – | 0.3 fold | 0.5 nM | – | IL4-RE-T13D (T13D/R121D/Y124D), unPEGylated (ligand) MHKCDITLQEIIKDLNSLTEQKTLCTELTVTDIFAASKNTTEKETFCRAATVLRQFYSHHEKDTRCLGATAQQFHRHKQLIRFLKRLDRNLWGLAGLNSCPVKEANQSTLENFLERLKTIMDEKDSKCSS
11 | 0.82 nM | 1.22 nM | – | – | 3.73 nM | 13.9 nM | 0.74 nM | – | – | – | IL4-RE-K37C, PEGylated with linear 22 kD mPEG-maleimide (ligand, linear 22 kD methoxy-polyethylene glycol-maleimide on Cys 37 (numbered according to wild type IL-4), also called PEG-IL4RE) MHKCDITLQEIIKTLNSLTEQKTLCTELTVTDIFAASCNTTEKETFCRAATVLRQFYSHHEKDTRCLGATAQQFHRHKQLIRFLKRLDRNLWGLAGLNSCPVKEANQSTLENFLERLKTIMDEKDSKCSS
12 | – | – | 4.6 fold | 4.93 nM | – | – | – | 7.6 fold | 13 nM | – | IL-4TM-A104C (R121D/Y124D/A104C) PEGylated with 30 kDa linear maleimide-PEG (ligand, 30 kDa linear maleimide-PEG on Cys 104 (numbered according to wild type IL-4)) MHKCDITLQEIIKTLNSLTEQKTLCTELTVTDIFAASKNTTEKETFCRAATVLRQFYSHHEKDTRCLGATAQQFHRHKQLIRFLKRLDRNLWGLAGLNSCPVKECNQSTLENFLERLKTIMDEKDSKCSS
13 | 1.2 nM | 1.21 nM | – | – | – | – | 1.15 nM | – | – | – | IL4-RE-S36C, PEGylated with linear 22 kD mPEG-maleimide (ligand, linear 22 kD methoxy-polyethylene glycol-maleimide on Cys 36 (numbered according to wild type IL-4), also called PEG-IL4RE) MHKCDITLQEIIKTLNSLTEQKTLCTELTVTDIFAACKNTTEKETFCRAATVLRQFYSHHEKDTRCLGATAQQFHRHKQLIRFLKRLDRNLWGLAGLNSCPVKEANQSTLENFLERLKTIMDEKDSKCSS
